Patent US20230071765A1, “COMPOSITIONS HAVING THIOREDOXIN ACTIVITY AND RELATED METHODS” (ORPRO THERAPEUTICS, INC., priority 2020, published 2023)

Biological target: T1, human insulin (Homo sapiens, UniProt P01308)
T1 construct: The two chains of human insulin have a total of six Cys residues which form three disulfide bonds in its mature structure
Assay: RP-HPLC insulin reduction assay (conversion of insulin heterodimer)
Type: biochemical
Settings: for Relative % insulin reduction: relative to maximum
Method: Functional assays 1. Reduction state of ORP100S was quantified using DTNB which reacts with free SH groups resulting in a yellow color change at 412 nm. Fifty microliters of 2.5 mM rhTrx was added to a 96-well plate, followed by 175 microliters of sample buffer and 25 microliters of 6 mM DTNB. After reactions were initiated by the addition of DTNB, change in kinetic absorbance at 412 nm due to DTNB reduction was monitored spectrophotometrically at 30° C. ORP100S concentration was determined by A280 (Nanodrop) using the extinction coefficient of human Trx-1 (7,000). The actual concentrations of free sulfhydryl groups were calculated based on the absorbance at 412 nm and the extinction coefficient of DTNB (14,150) in order to determine the reduction state as percentage of free sulfhydryl. […] 2. Percent of free monomer ORP100S in solution was determined using SEC. Samples were analyzed on a BioBasic S-300 250×4.6 column (Thermo Scientific) run on an Agilent 1100 HPLC system. The SEC-HPLC mobile phase buffer consisted of 40 mM ammonium acetate (pH 5.5), 2 mM EDTA and 450 mM NaCl. Low pH minimized dimerization while the 450 mM NaCl concentration improved resolution. The flow rate was 0.35 mL/min and absorbance was monitored at 280 nm. The length of each run was 20 minutes. The ORP100S monomer percentage was determined by integration of the area under the peak of the monomeric fraction divided by the total area under the curve of the chromatogram. 3. Disulfide bond reduction activity of ORP100S was quantified by assaying the reduction state of a small protein (human insulin) which in its heterodimeric form contains two intermolecular and one intramolecular disulfide, all three of which are known to be suitable thioredoxin substrates. Insulin reduction has classically been used to quantify thioredoxin activity by absorbance change following addition of NADPH and TrxR (Holmgren A., 1979, Thioredoxin catalyzes the reduction of insulin disulfides by dithiothreitol and dihydrolipoamide, J Biol Chem 254:9627-32). Such an approach is not suitable for monothiol C35S thioredoxins ORP-100 and ORP100S due to 1) the lack of cycling resulting from stoichiometric covalent linkage to the disulfide bond substrate and 2) the inability of NADPH and TrxR to reduce Cys32 of the oxidized monothiol Trx active site. Consequently, a new assay was developed based on the use of reverse-phase (RP) HPLC to monitor the rate of conversion of disulfide-bonded insulin heterodimers to monomeric forms. The two chains of human insulin have a total of six Cys residues which form three disulfide bonds in its mature structure. When ORP100S in the reduced form is incubated with dimeric insulin it reacts with these disulfide bonds to disrupt them, simultaneously forming covalent linkages to the ORP100S Cys32. […] The ORP100S samples were incubated with 10 mg/mL insulin for various time points (0-90 min) and the reactions were stopped by addition of iodacetic acid (IA) and trifluoroacetic acid (TFA). Relative activity at each time point was determined from changes in the area under the insulin heterodimer peak following separation over RP-HPLC (Agilent 1100) using an Intrada WP-RP 50×3 (Imtakt) column. Buffer A was 0.1% TFA and Buffer B was 0.1% TFA in acetonitrile. The gradient was […] in 5 min followed by 30 to 60% B in 45 min, then 60 to 80% B for an additional 5 min. The flow rate was 0.2 mL/min and absorbance was measured at 280 nm. In order to evaluate the change in the intact insulin molecule a time 0 baseline was first established using 1 M IA and 0.1% TFA without the addition of ORP100S. The area under the intact insulin heterodimer peak was then determined and set as equivalent to 100%. After the reaction with ORP100S the area of the intact insulin peak (corresponding to retention time) was measured. The percent reduction in intact insulin was then calculated from the decrease in the area following reduction divided by the area at time 0 multiplied by 100.

T1 sequence (P01308 25-54 limits assumed): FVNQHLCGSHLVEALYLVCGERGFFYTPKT
T1 sequence (P01308 90-110 limits assumed): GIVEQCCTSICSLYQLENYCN

B1: ORP100S: thioredoxin with monothiol active site, Cys35 and non-active Cys 62, 69 and 73 substituted with serine (SEQ ID NO:29) (protein)
chain: MVKQIESKTAFQEALDAAGDKLVVVDFSATWCGPSKMIKPFFHSLSEKYSNVIFLEVDVDDSQDVASESEVKSMPTFQFFKKGQKVGEFSGANKEKLEATINELV
modifications: synthetic peptide motif
Relative % insulin reduction (Ox:Red 0:100 mixture): 100% | Relative % insulin reduction (Ox:Red 25:75 mixture): 72% | Relative % insulin reduction (Ox:Red 50:50 mixture): 51% | Relative % insulin reduction (Ox:Red 75:25 mixture): 36% | Relative % insulin reduction (Ox:Red 100:0 mixture): 8% | maximum insulin heterodimer reaction (fully reduced material, time and conditions used): 45%
